Source: the supplement of paper PMC7125110
± gives the standard error. For part of these data: This sample holds only a part of the variants without activity.

B1: glmS ribozyme (parent)
chain: AUAAAAGCGCCAGAACUACAGAAAUGUAGUUGACGAGGAGGAGGUUUAUCGAAUUUUCGGCGGAUGCCUCCAAA

Experiments:
Details in all cases: with glucosamine-6-phosphate
glucosamine-6-phosphate [1] = variants of: B1; experiment: kcat; higher = faster cleavage; RNA array
How it was run: (§1)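 kcat and KM were obtained from weighted Michaelis–Menten fits across concentrations of kobs values. Those came from one- or two-exponential decay fits to per-tile medians normalised to baseline and to non-cleaving reference variants. The variants were barcoded ribozymes transcribed in situ by E. coli RNA polymerase on sequenced MiSeq chips and tracked through a hybridised Cy3 probe at 37 °C, with 40 μM to 10 mM glucosamine-6-phosphate in HEPES/KCl/Mg(OAc)2 buffer flowed in.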

glucosamine-6-phosphate [2] = variants of: B1; experiment: KM; higher = weaker cofactor use; RNA array
How it was run: as §1

glucosamine-6-phosphate [3] = variants of: B1; experiment: self-cleavage kobs at 160 uM GlcN6P; higher = faster cleavage; RNA array
How it was run: as §1

glucosamine-6-phosphate [4] = variants of: B1; experiment: self-cleavage kobs at 640 uM GlcN6P; higher = faster cleavage; RNA array
How it was run: as §1

glucosamine-6-phosphate [5] = variants of: B1; experiment: self-cleavage kobs at 2500 uM GlcN6P; higher = faster cleavage; RNA array
How it was run: as §1

glucosamine-6-phosphate [6] = variants of: B1; experiment: self-cleavage kobs at 10000 uM GlcN6P; higher = faster cleavage; RNA array
How it was run: as §1

glucosamine-6-phosphate [7] = variants of: B1; experiment: self-cleavage kobs at 40 uM GlcN6P; higher = faster cleavage; RNA array
How it was run: as §1

Variant | kcat (glucosamine-6-phosphate [1]) [s⁻¹] | KM (glucosamine-6-phosphate [2]) [µM] | self-cleavage kobs at 160 uM GlcN6P (glucosamine-6-phosphate [3]) [s⁻¹] | self-cleavage kobs at 640 uM GlcN6P (glucosamine-6-phosphate [4]) [s⁻¹] | self-cleavage kobs at 2500 uM GlcN6P (glucosamine-6-phosphate [5]) [s⁻¹] | self-cleavage kobs at 10000 uM GlcN6P (glucosamine-6-phosphate [6]) [s⁻¹] | self-cleavage kobs at 40 uM GlcN6P (glucosamine-6-phosphate [7]) [s⁻¹]
AUAAAAGCGCCAGAACUAAAGAAAUGUAGUUGACGAGGAGGAGGUUUAUCGAAUUUUCGGCGGAUGGCUCCAAA [C19A C67G] | 0.000349 ± 4.1e-05 | 295 ± 93 | 0.000171 ± 4.8e-05 | 0.000207 ± 7.2e-05 | 0.000309 ± 7.1e-05 | 0.000347 ± 7.3e-05 | –
AUAAAAGCGCCAGAACUACAGAAAUGUAGUUGACGAGAAGGAGGUUUAUCGAAUGUUCGGCGGAUGCCUCCAAA [G38A U55G] | < 1e-05 | – | < 1e-05 | – | – | – | –
AUAAAUGCGCCAGAACUACAGAAAUGUAGUUGACGAGGAGGAGGUUUAUCGAAUUUUCGGCGGAGGCCUCCAAA [A6U U65G] | 3.43e-05 ± 1e-05 | – | – | – | 4.32e-05 ± 1.3e-05 | – | < 1e-05
AUAAAAGCGCCAGAACUACAGAAAUGUAGUUGACGAGGAGGAGGUUUAGCGAUUUUUCGGCGGAUGCCUCCAAA [U49G A53U] | 0.00103 ± 0.00011 | 4490 ± 760 | 2.84e-05 ± 8.8e-06 | 0.00014 ± 1.9e-05 | 0.000364 ± 5.6e-05 | 0.000709 ± 8.3e-05 | –
AUAAAAGCGCCAGAACUACAGAAAUGUAGUAGACGAGGAGGAGGUUUAUCGAAUUUUCGGCGGAUGCCUCCAAA [U31A] | 0.0242 ± 0.0089 | 2460 ± 1100 | 0.00127 ± 5.8e-05 | 0.00431 ± 0.00015 | 0.00997 ± 0.00043 | 0.0286 ± 0.0012 | 0.000428 ± 7.9e-06
AUAAAAGCGCCAGAACUACAGAAAUGUAGUUGACGAGGAGGAGGUUUAUCGAAUUUUCGGCCGAUGCAUCCAAA [G62C C68A] | 1.29e-05 ± 3.6e-06 | – | – | – | – | – | –
AUAAAAGCGCCAGAACUACAGAAAUGUAGUUUACGAGGAGGGGGUUUAUCGAAUUUUCGGCGGAUGCCUCCAAA [G32U A42G] | 0.00137 ± 0.00021 | 3790 ± 810 | 4.61e-05 ± 1.7e-05 | 0.000218 ± 4e-05 | 0.000528 ± 0.00013 | 0.000988 ± 0.00023 | –
AUAAAAGCGCCAGAACUACAGAAAUGUAGUUGACGAGGAGGAGGUUUAUCGAAUUUUCGGUGGAUGCCUCGAAA [C61U C71G] | < 1e-05 | – | < 1e-05 | – | – | – | –
AUAAAAGCGCCAGACCUACAGAAAUGUAGUUGACGAGGAGGAGGUUUAUCGAAUUUUCGGCGGAUGCCUCGAAA [A15C C71G] | 0.000307 ± 5.8e-05 | 1010 ± 390 | 4.96e-05 ± 1.3e-05 | 0.00011 ± 1.2e-05 | 0.000299 ± 3.9e-05 | 0.00025 ± 3.6e-05 | –
